The values that follow come from patent publication US20120321619A1 (Bayer, published 2012).

Positions count from the first letter of the chain named.

The target of test [1] is T1, human C4.4a on transfected A549:hC4.4a cells (human, UniProt O95274 31-326).
T1 sequence: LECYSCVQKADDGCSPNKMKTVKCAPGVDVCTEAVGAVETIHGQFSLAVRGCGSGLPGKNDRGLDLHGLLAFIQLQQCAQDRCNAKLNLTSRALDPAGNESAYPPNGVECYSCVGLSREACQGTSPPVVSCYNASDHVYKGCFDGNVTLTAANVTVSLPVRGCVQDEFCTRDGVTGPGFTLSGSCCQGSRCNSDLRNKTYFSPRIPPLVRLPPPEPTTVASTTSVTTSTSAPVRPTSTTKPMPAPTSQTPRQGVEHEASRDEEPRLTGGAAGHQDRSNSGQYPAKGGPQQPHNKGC
Put plainly: cell-based or functional assay.

In test [2] the target is T2, human C4.4a natively expressed on tumor cell lines (human, UniProt O95274 31-326).
T2 construct: whole, on cells; also called NCI H292; NCI H322
T2 sequence (looked up): T1 sequence
Put plainly: FACS titration of IgG1 on NCI H292 cells. The protocol: FACS titration was performed in a 96 well microtiter plate, in which serial dilutions of the primary antibody in a volume of 50 W of FACS buffer (3% FCS, in PBS) were mixed with 50 μl of a cell suspension consisting of 2×10^5 cells/ml which had been detached with Cell Dissociation Solution (1×) Non-enzymatic (Sigma), and resuspended in FACS buffer. Incubation was performed at 4° C. for 1 hour with agitation. Cells were pelleted, washed with FACS buffer and resuspended in 100 μl/well of Phycoerythrin labeled goat anti human IgG (Dianova) solution in FACS buffer. Incubation and washing was performed as before. Analysis of cell-bound antibodies was done at the respective detection wavelength using the FACS Array device. EC₅₀ values were determined from fluorescence medians of duplicates using Swift 8.0 software.

Test [3] addresses T3, recombinant soluble murine C4.4a (mouse, UniProt Q91YK8 33-343, limits assumed).
T3 construct: also called mouse C4.4a; mC4.4a
T3 sequence (looked up): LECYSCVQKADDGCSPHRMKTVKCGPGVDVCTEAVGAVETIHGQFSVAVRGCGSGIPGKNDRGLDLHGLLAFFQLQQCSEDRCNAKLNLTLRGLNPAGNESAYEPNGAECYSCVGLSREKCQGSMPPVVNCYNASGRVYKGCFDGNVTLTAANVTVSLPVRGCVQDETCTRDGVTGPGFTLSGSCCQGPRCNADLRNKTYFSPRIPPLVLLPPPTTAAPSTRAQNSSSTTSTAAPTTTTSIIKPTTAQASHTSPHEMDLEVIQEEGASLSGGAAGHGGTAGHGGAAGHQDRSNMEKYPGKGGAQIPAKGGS
The experiment in a line: SPR (Biacore T100), IgG1 captured by anti-human Fc, soluble C4.4a injected, 1:1 fit. The protocol:
(§1) Binding affinities of anti C4.4 antibodies were determined by surface plasmon resonance analysis on a Biacore T100 instrument (GE Healthcare Biacore, Inc.). Antibodies were immobilized onto a CM5 sensor chip through an indirect capturing reagent, anti-human IgG Fc. Reagents from the “Human Antibody Capture Kit” (BR-1008-39, GE Healthcare Biacore, Inc.) were used as described by the manufacturer. Approximately 5000 RU monoclonal mouse anti-human IgG (Fc) antibody were immobilized per cell. Anti C4.4 antibodies were injected at a concentration of 5 μg/ml at 10 μl/min for 10 sec to reach a capturing level of approximately 200 to 600 RU. Various concentrations (400 nM, 200 nM, 100 nM, 50 nM, 25 nM, 12.5 nM, 6.25 nM, and 3.12 nM) in HEPES-EP buffer (GE Healthcare Biacore, Inc.) of human or murine C4.4a were injected over immobilized anti C4.4a antibodies at a flow rate of 60 μl/min for 3 minutes and the dissociation was allowed for 10 minutes. Sensograms were generated after in-line reference cell correction followed by buffer sample subtraction. The dissociation equilibrium constant (KD) was calculated based on the ratio of association (kₒₙ) and dissociation rated (koff) constants, obtained by fitting sensograms with a first order 1:1 binding model using Biavaluation Software (version 4.0).

The target of test [4] is T4, recombinant soluble human C4.4a (human, UniProt O95274 31-308).
T4 construct: recombinant, soluble, purified protein; also called hC4.4a; full length C4.4a
T4 sequence: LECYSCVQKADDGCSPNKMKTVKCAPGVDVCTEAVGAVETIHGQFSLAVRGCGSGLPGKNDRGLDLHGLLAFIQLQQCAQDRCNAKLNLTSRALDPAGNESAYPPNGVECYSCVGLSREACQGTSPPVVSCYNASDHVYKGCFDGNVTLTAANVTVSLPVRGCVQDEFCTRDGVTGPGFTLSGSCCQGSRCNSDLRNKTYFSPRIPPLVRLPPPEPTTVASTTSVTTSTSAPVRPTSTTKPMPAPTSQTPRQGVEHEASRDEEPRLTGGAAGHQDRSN
Described as above. The protocol: as §1

The target of test [5] is T5, murine C4.4a on transfected CHO-S:mC4.4a cells (mouse, UniProt Q91YK8 33-343).
T5 construct: full length GPI-anchored form, stably transfected; also called Mouse C4.4a:CHO; mC4.4a: CHO
T5 sequence: T3 sequence (looked up)
Put plainly: FACS titration of IgG1 on CHO-S:mC4.4a cells.

The target in test [6] is T4, recombinant soluble human C4.4a. Put plainly: direct ELISA, Fab supernatant on coated human C4.4a, signal normalized to Fab quantity. The protocol: (§2) Cultures were diluted in 10% Smart Block in PBST and bound to the MTP plates for 1 h at 20° C. After washing with PBST, captured antibodies were incubated with a HRP-coupled anti-lambda antibody (Sigma, A5175) and detected by incubating the plate with 10 μM amplex red substrate (Invitrogen, A12222) for 30 minutes at 20° C. in the dark followed by fluorescence measurement. Determined quantification signals were checked to be in the dynamic range of an calibration series built up with concentrated parental Fab (M31-B01 or M20-D02-S-A) expression culture supernatant allowing a relative quantification of each individual Fab expression sample.
(§3) To determine the activity of the mutated Fab variants on recombinant soluble human or mouse C4.4a a direct ELISA assay format was used. Briefly, MTP plates (Nunc maxisorp black, 460518) were coated with 2 μg/ml either human or mouse C4.4a diluted in coating buffer (Candor Bioscience GmbH, 121125) and incubated for 15 h at 4° C. After washing 3 times with PBST, plates were blocked with 100% Smart Block (Candor Bioscience GmbH, 113500) for 1 h at 20° C. and the washing steps were repeated. For binding of the Fab antibody fragments 20 μl of culturing supernatants were added to the plates for 1 h at 20° C. followed by washing. In some cases the washing stringency was increased by an additional incubation step with 10% Smart Block in PBST for 90 min followed by washing 3 times with PBST (“process B” in Table 10b). Bound parental Fabs and variants were then detected by a HA-epitope tag specific antibody HRP conjugate (Bethyl, A190-108P). 10 μM amplex red substrate (Invitrogen, A12222) was added to the plates and the fluorescence signal was detected using a common fluorescence reader, e.g. Tecan Ultra. Quantity normalized affinity signals were calculated as ratios of background corrected affinity and quantification signals in the respective ELISA: (Signalaffinity−Backgroundaffinity)/(Signalquantity−Backgroundquantity). The resulting values correlate mainly with the affinity in a positive manner, whereas not normalized values correlate additionally with the concentration of the binding Fab in the sample.

Test [7] has as its target T3, recombinant soluble murine C4.4a. Put plainly: direct ELISA, Fab supernatant on coated mouse C4.4a, signal normalized to Fab quantity. The protocol:
as §2, §3

B1: D02-6 (antibody, human IgG1, V domains shown)
VH: EVQLLESGGGLVQPGGSLRLSCAASGFTFSDYQMTWIRQTPGKGLEWVSGISWNGGSTHYADSVKGRFTISRDNSKNTLYLQMNSLRAEDTAVYYCAKGDYLVYSSYYFKSWGQGTLVTVSS
VL: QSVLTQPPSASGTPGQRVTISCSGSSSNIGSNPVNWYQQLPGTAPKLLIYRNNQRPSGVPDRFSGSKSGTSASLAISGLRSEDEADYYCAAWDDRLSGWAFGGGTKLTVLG
notes: tested as human IgG1; also called D02-06
Consider B1, for which the “internalization t½ [min] into A549:hC4.4a cells (CypHer 5E labeled antibody)” value (“internalization t½” below) in test [1] was determined as 39 min. The EC50 in test [2] was determined as 0.02 nM; in test [5], 1 nM. Further, the Kd in test [3] was determined as 21 nM; in test [4], 6 nM.

B2: D02-4 (antibody, human IgG1, V domains shown)
VH: B1 VH with S106A, K110D
VL: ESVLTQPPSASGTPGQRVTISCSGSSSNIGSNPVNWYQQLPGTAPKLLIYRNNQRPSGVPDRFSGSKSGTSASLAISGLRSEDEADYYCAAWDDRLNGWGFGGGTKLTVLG
notes: tested as human IgG1; also called D02-04
As for B2, the Kd came to 56 nM in test [3] and 29 nM in test [4].

B3: M20-D02 S-A Fab LC D92G (Fab, V domains shown)
VH: B1 VH with I51V, G56A, S57R, S106A, K110D, S121T
VL: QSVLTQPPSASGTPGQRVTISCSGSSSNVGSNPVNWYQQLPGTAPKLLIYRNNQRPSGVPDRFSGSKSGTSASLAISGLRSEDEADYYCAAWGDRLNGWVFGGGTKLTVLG
notes: Fab with 3×HA-tag and hexa-histidine tag at the C-terminus of the heavy chain, culture supernatant
Consider B3, for which the “normalized affinity signal (average)” value stood at 0.64 in test [6] and 0.1 in test [7].

B4: D02-11 (antibody, V domains shown)
VH: B1 VH
VL: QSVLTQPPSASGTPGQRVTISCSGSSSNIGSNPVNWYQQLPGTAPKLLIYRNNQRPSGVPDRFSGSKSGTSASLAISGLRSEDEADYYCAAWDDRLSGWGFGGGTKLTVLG
notes: tested as human IgG1
As to B4, the “internalization t½” value in test [1] came out at 22 min. The EC50 was 0.01 nM in test [2] and 1.7 nM in test [5]. For the same molecule, the figures for the Kd in test [3] and in test [4] were 24 nM and 10 nM, respectively.

B5: M20-D02 S-A Fab LC A90Q (Fab, V domains shown)
VH: B1 VH with I51V, G56A, S57R, S106A, K110D, S121T
VL: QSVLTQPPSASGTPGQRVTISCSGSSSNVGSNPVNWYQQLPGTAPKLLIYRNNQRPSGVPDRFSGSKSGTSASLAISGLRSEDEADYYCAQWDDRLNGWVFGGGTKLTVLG
notes: as for B3
B5: the “normalized affinity signal (average)” value in test [6] was 1.41; in test [7] it was 0.29.

B6: M20-D02 S-A Fab LC V97G (Fab, V domains shown)
VH: B1 VH with I51V, G56A, S57R, S106A, K110D, S121T
VL: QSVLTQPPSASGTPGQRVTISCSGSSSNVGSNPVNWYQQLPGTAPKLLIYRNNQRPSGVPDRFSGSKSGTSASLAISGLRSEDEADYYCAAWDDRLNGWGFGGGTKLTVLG
notes: as for B3
Consider B6, for which the figures for the “normalized affinity signal (average)” value in test [6] and in test [7] were 1.21 and 0.3, respectively.

B7: M20-D02 S-A Fab HC V51I (Fab, V domains shown)
VH: B1 VH with G56A, S57R, S106A, K110D, S121T
VL: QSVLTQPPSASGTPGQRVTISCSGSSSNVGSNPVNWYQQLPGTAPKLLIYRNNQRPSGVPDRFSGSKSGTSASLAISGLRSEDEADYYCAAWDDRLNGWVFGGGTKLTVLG
notes: as for B3
As for B7, the “normalized affinity signal (median, process A)” value was determined as 0.52 in test [6] and 0.16 in test [7].

B8: M20-D02 S-A Fab LC V97A (Fab, V domains shown)
VH: B1 VH with I51V, G56A, S57R, S106A, K110D, S121T
VL: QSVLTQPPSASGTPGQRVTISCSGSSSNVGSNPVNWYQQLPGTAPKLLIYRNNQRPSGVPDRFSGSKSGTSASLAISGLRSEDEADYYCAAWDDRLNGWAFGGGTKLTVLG
notes: as for B3
Take B8: the “normalized affinity signal (average)” value amounted to 1.32 in test [6] and 0.52 in test [7].

B9: D02-13 (antibody, human IgG1, V domains shown)
VH: B1 VH with D31S, T40A, S105K
VL: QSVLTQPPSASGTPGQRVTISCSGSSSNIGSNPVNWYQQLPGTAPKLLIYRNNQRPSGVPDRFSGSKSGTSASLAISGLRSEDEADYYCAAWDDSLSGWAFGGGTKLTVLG
notes: tested as human IgG1
In the case of B9, the EC50 in test [2] is 0.12 nM; in test [5] it was 2 nM. For the same molecule, the Kd in test [3] was determined as 42 nM; in test [4], 2 nM.

B10: M20-D02 S-A Fab HC S100aR (Fab, V domains shown)
VH: B1 VH with I51V, G56A, S57R, S105R, S106A, K110D, S121T
VL: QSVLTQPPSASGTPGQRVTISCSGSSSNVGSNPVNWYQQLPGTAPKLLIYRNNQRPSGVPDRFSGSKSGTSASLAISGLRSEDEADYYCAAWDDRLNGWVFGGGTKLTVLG
notes: as for B3
Take B10: the entries for the “normalized affinity signal (average)” value in test [6] and in test [7] were 0.43 and 0.02, respectively.

B11: M20-D02 S-A Fab LC A90R (Fab, V domains shown)
VH: B1 VH with I51V, G56A, S57R, S106A, K110D, S121T
VL: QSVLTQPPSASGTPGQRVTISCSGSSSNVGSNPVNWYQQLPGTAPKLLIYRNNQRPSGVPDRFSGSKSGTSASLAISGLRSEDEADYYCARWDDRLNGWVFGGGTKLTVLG
notes: as for B3
In the case of B11, the results for the “normalized affinity signal (average)” value in test [6] and in test [7] were 0.94 and 0.17, respectively.

B12: B01-5 (antibody, human IgG1, V domains shown)
VH: EVQLLESGGGLVQPGGSLRLSCAASGFTFSNAWMSWVRQAPGKGLEWVSYISSSGSTIYYADSVKGRFTISRDNSKNTLYLQMNSLRAEDTAVYYCAREGLWAFDYWGQGTLVTVSS
VL: QSVLTQPPSVSGAPGQRVTISCTGSSSNIGAGYVVHWYQQLPGTAPKLLIYDNNKRPSGVPDRFSGSKSGTSASLAISGLRSEDEADYYCAAYDDSLSGPVFGGGTKLTVLG
notes: tested as human IgG1; also called B01-05
As for B12, the EC50 in test [2] is 0.05 nM; in test [5], 1.2 nM. Further, the Kd is 10 nM in test [3] and 4 nM in test [4].

B13: B01-12 (antibody, V domains shown)
VH: B12 VH with N31S, T57S, I58T, Y106K
VL: B12 VL with V10A, A13T, T23S, K55Q, Y93F, S96R
notes: tested as human IgG1
Take B13: the Kd in test [3] is 2 nM; in test [4] it was 1 nM. In addition, the EC50 in test [5] worked out at 1.4 nM.

B14: B01-3 (antibody, human IgG1, V domains shown)
VH: B12 VH
VL: B12 VL with Q1E, Y93W, S96R, S98N
notes: tested as human IgG1; also called B01-03
Turning to B14, the “internalization t½” value in test [1] amounted to 55 min. Besides, the EC50 is 0.06 nM in test [2] and 0.36 nM in test [5]. In addition, the Kd in test [3] was 120 nM; in test [4], 60 nM.
